Assay results taken from patent US7390643B2, “Geranyl diphosphate synthase molecules, and nucleic acid molecules encoding same” (Washington State University Research Foundation, priority 2002, dated 2008).
Values joined by “and” are separate entries in the source; they are usually repeats but may differ in a detail not shown here. Identical values can stand only once.

Key:
[1] = tested on: CC(C)=CCOP(=O)(O)OP(=O)(O)O; experiment: purified protein, by the assay type; conditions: other: apparent; at saturating concentrations of IPP (212 mM [sic]); means ± SD of three determinations; 70.0 °C
Method: (§1) The assay procedures and methods for product analysis were similar to those previously described (C. Burke and R. Croteau, J. Biol. Chem. 277:3141-3149, 2002), except that for radio-GC a Raga (Raytest) radio-detector connected in-line to a Series 600 (Gow-Mac) chromatograph was employed with a 5% phenyl polysiloxane (ZB-5; Phenomenex) capillary column under hydrogen gas flow (70° C. for 5 min. followed by an 8° C. per min. ramp to 240° C. for 5 min).
(§2) Molecular weight determination and kinetic evaluation. […] For kinetic evaluation, the standard prenyltransferase assay was performed (C. Burke and R. Croteau, J. Biol. Chem. 277:3141-3149, 2002) but the reaction was terminated after 4 min. to ensure linearity in the rate measurements.
(§3) Kinetic characterization of the GPP synthases (SEQ ID NOS:12, 16, and 20).

[2] = tested on: C=C(C)CCO[P@@](=O)(O)OP(=O)(O)O; experiment: purified protein, by the assay type; conditions: 70.0 °C; for kcat: other: IPP and DMAPP as co-substrates, MgCl2 cofactor; for Km: other: apparent, at saturating concentrations of DMAPP (350 mM [sic]), means ± SD of three determinations
Method: as §1, §2, §3

Row | Substance | Km [1] [µM] | kcat [2] | Km [2] [µM]
1 | Grand fir (Abies grandis) geranyl diphosphate synthase AgGPPS1, N-terminally truncated (E88M), C-terminal His6 tag, SEQ ID NO: 16 (Abies grandis; E88M) | 163 ± 13 | 1.6 s⁻¹ | 44 ± 5
2 | Grand fir (Abies grandis) geranyl diphosphate synthase AgGPPS2, N-terminally truncated (E86M), C-terminal His6 tag, SEQ ID NO: 12 (Abies grandis; E86M) | 90 ± 1 | 1.8 s⁻¹ | 55 ± 4
3 | Grand fir (Abies grandis) geranyl diphosphate synthase AgGPPS3, N-terminally truncated (E92M), C-terminal His6 tag, SEQ ID NO: 20 (Abies grandis; E92M) | 82 ± 5 | 0.47 s⁻¹ and 0.5 ± 0.1 s⁻¹ | 44 ± 7
